Paper PMC9444072

Biological target: BK channel α subunit (hSloα1, human slow poke alpha subunit K+ channel) (human) (UniProt Q12791)
Assay: native gel or EMSA; native SMA-PAGE (4-16% Tris/glycine gradient gel, 150 V, 1 h, room temperature) of Ni-NTA purified SMALPs from HEK293 membranes, followed by western blot with anti-hsloα, anti-hsloβ or anti-his antibodies; subunits co-expressed in cells and extracted together

Chain of BK channel α subunit (hSloα1, human slow poke alpha subunit K+ channel), Q12791 1-1236 (natural protein; other documents disagree on this pair) (Q12791 whole entry): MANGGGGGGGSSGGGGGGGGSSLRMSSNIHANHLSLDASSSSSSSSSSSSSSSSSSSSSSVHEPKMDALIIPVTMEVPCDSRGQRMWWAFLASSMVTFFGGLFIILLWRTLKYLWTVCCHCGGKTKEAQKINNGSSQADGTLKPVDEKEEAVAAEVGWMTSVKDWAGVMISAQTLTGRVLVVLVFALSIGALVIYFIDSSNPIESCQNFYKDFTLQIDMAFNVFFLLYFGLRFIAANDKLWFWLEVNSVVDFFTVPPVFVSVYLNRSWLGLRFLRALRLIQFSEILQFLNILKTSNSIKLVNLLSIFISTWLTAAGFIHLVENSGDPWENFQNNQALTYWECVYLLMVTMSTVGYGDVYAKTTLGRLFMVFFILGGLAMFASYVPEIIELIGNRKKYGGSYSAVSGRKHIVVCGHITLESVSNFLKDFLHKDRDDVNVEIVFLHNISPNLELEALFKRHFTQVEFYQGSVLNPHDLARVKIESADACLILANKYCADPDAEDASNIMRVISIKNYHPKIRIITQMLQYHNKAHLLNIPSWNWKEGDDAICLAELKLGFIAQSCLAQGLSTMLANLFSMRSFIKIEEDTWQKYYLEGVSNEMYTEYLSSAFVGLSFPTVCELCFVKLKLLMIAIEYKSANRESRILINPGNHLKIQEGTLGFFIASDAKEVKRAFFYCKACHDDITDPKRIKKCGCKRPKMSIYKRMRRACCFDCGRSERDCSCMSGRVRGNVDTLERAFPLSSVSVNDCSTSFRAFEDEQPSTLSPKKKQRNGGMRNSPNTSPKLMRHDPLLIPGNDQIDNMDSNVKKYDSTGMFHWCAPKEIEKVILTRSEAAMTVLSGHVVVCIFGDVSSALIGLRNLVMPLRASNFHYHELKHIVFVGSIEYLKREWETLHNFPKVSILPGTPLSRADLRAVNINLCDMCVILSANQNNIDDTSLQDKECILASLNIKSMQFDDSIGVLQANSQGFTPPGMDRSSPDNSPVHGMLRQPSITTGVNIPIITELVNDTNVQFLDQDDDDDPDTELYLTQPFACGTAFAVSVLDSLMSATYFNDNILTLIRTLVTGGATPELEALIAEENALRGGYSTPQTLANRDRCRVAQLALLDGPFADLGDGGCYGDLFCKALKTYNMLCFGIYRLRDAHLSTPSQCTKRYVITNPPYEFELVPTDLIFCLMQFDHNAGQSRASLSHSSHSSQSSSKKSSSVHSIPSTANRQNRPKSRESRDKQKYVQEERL

stoichiometry N: 4
Substance: BK channel α subunit (hSloα1, human slow poke alpha subunit K+ channel), Q12791 1-1236 (natural protein; other documents disagree on this pair)
